Reference: patent US20120165204A1

Legend:
[1] = molecular target: CRIB domain of PAK1 (residues 65-150, extended CRIB domain) with C-terminal 6x Histidine tag (UniProt Q13153); experiment: ITC at 25 °C, PA-Rac1 mutant injected into PAK1 CRIB (10 µM), experiment 2; column head prints 'mM', paragraph 152 gives µM
[2] = molecular target: CRIB domain of PAK1 (residues 65-150, extended CRIB domain) with C-terminal 6x Histidine tag (UniProt Q13153); experiment: ITC at 25 °C, experiment 1; design: unit not given here
[3] = molecular target: CRIB domain of PAK1 (residues 65-150, extended CRIB domain) with C-terminal 6x Histidine tag (UniProt Q13153); experiment: ITC at 25 °C, experiment 2, stoichiometry of one-site model
[4] = molecular target: CRIB domain of PAK1 (residues 65-150, extended CRIB domain) with C-terminal 6x Histidine tag (UniProt Q13153); experiment: ITC at 25 °C, experiment 1, stoichiometry of one-site model
[5] = molecular target: CRIB domain of PAK1 (residues 65-150, extended CRIB domain) with C-terminal 6x Histidine tag (UniProt Q13153); experiment: ITC
[6] = molecular target: CRIB domain of PAK1 (residues 65-150, extended CRIB domain) with C-terminal 6x Histidine tag (UniProt Q13153); experiment: ITC at 25 °C, experiment 2; design: unit not given here
[7] = molecular target: CRIB domain of PAK1 (residues 65-150, extended CRIB domain) with C-terminal 6x Histidine tag (UniProt Q13153); experiment: ITC at 25 °C, PA-Rac1 mutant injected into PAK1 CRIB (10 µM), experiment 1; column head prints 'mM', paragraph 152 and the legend of FIG. 3 give µM
[8] = molecular target: CRIB domain of PAK1 (residues 65-150, extended CRIB domain) with C-terminal 6x Histidine tag (UniProt Q13153); experiment: ITC at 25 °C, PA-Rac1 mutant injected into PAK1 CRIB (10 µM), experiment 2; column head prints 'mM', paragraph 152 gives 220-280 nM
[9] = molecular target: CRIB domain of PAK1 (residues 65-150, extended CRIB domain) with C-terminal 6x Histidine tag (UniProt Q13153); experiment: ITC at 25 °C, PA-Rac1 mutant injected into PAK1 CRIB (10 µM), experiment 1; column head prints 'mM', paragraph 152 and the legend of FIG. 3 give µM / nM

Substance	Kd [1]	ΔH [2]	ΔS [2]	N [3]	N [4]	fold weaker affinity than the lit state mimetic I539E [5]	ΔH [6]	ΔS [6]	Kd [7]	Kd [8]	Kd [9]
PA-Rac1 C450A (dark state mutant) with N-terminal six Histidine tag (from UniProt P63000 4-192)	3100 nM	-7000	2.6	0.64	1	10 fold	-5600	6.6	2300 nM		
PA-Rac1 I539E (lit state mutant) with N-terminal six Histidine tag (from UniProt P63000 4-192)			-30	0.95	0.95		-18000	-31		280 nM	220 nM
